Reference: patent US8133978

Target: Human interleukin-18 (recombinant human IL-18) (human) (UniProt Q14116)
Assay: cell-based or functional assay

Chain of IL-18 bp (IL-18 binding protein as used in the bioassays) (O95998 31-194 limits assumed): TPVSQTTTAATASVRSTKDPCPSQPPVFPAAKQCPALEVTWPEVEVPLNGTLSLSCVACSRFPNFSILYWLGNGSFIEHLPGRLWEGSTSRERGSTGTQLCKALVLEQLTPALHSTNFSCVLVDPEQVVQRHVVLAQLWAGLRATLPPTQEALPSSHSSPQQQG
Chain of Human interleukin-18 (recombinant human IL-18) (human) (Q14116 37-193 limits assumed): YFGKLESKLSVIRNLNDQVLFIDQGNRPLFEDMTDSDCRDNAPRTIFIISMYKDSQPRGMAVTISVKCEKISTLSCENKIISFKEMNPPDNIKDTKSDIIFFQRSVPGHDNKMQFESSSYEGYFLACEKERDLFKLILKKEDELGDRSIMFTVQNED

IC50, LPS-stimulated IFNγ release, human PBMC, Donor 1 10% serum: 0.024 | IC50, LPS-stimulated IFNγ release, human PBMC, Donor 1 25% serum: 0.064 | IC50, LPS-stimulated IFNγ release, human PBMC, Donor 3 10% serum: 0.032 | IC50, LPS-stimulated IFNγ release, human PBMC, Donor 3 25% serum: 0.046 | complete inhibition of IL-18 mediated IFNγ release, LPS-stimulated human PBMC, 10% or 25% human serum: > 1 µg/mL
Substance: IL-18 bp (IL-18 binding protein as used in the bioassays) (from UniProt O95998 31-194)
